pKd: −log10 of the molar value.

For this assay, the target named is GST-PHD^RACK7 (human). The assay can be described thus: MST.

“H3.3G34R peptide (amino acids 22 to 44) (from UniProt P84243 23-45)” gave a negative-log Kd (pKd) of 5.22.

Values taken from article PMC7439511.
